Source: article PMC4661804, “Homeodomain Protein Scr Regulates the Transcription of Genes Involved in Juvenile Hormone Biosynthesis in the Silkworm”

B1: Allatotropin probe (dsDNA)
DNA 1: CCATAGGTTTGTAGATAATTAGCGTAGCACGCTGTA
DNA 2: TACAGCGTGCTACGCTAATTATCTACAAACCTATGG
B2: FPPS2 probe (dsDNA)
DNA 1: TCGCAAGTGAAAACAATTAATTCGCAATCGGTTCA
DNA 2: TGAACCGATTGCGAATTAATTGTTTTCACTTGCGA
B3: JHAMT probe (dsDNA)
DNA 1: ATGGCTAATTTTTTTAATGAATTAAAAGAAC
DNA 2: GTTCTTTTAATTCATTAAAAAAATTAGCCAT
B4: Allatotropin mutant probe (dsDNA)
DNA 1: CCATAGGTTTGTAGACCCCCAGCGTAGCACGCTGTA
DNA 2: TACAGCGTGCTACGCTGGGGGTCTACAAACCTATGG
B5: FPPS2 mutant probe (dsDNA)
DNA 1: TCGCAAGTGAAAACACCCCCTTCGCAATCGGTTCA
DNA 2: TGAACCGATTGCGAAGGGGGTGTTTTCACTTGCGA
B6: JHAMT mutant probe (dsDNA)
DNA 1: ATGGCTAATTTTTTCCCCGAATTAAAAGAAC
DNA 2: GTTCTTTTAATTCGGGGAAAAAATTAGCCAT

How the values were obtained:
Scr (Sex combs reduced) [1] = target: T1, Scr (Sex combs reduced) (Bombyx mori, UniProt Q9XZR4 1-356); experiment: EMSA; dose-dependent; competed by unlabeled probe; EMSA: 0.1-1 ug protein, 5 uM labeled probe, 15 uL with 3 uL 5x binding buffer (Beyotime, composition not given), 25 C, 20 + 20 min; 5% PAGE in 1x TBE (45 mM Tris-borate, 1 mM EDTA, pH 8.3); settings: protein: recombinant; tags: His-SUMO (N-terminal, pCold-SUMO); label: 5'-Cy3; blunt
Scr (Sex combs reduced) [2] = target: T1, Scr (Sex combs reduced); experiment: competition; unlabeled mutant, 5-50x, against labeled N1; EMSA: 0.1-1 ug protein, 5 uM labeled probe, 15 uL with 3 uL 5x binding buffer (Beyotime, composition not given), 25 C, 20 + 20 min; 5% PAGE in 1x TBE (45 mM Tris-borate, 1 mM EDTA, pH 8.3); settings: protein: recombinant; tags: His-SUMO (N-terminal, pCold-SUMO); label: none; blunt
Scr (Sex combs reduced) [3] = target: T1, Scr (Sex combs reduced); experiment: competition; unlabeled mutant, 5-50x, against labeled N3; EMSA: 0.1-1 ug protein, 5 uM labeled probe, 15 uL with 3 uL 5x binding buffer (Beyotime, composition not given), 25 C, 20 + 20 min; 5% PAGE in 1x TBE (45 mM Tris-borate, 1 mM EDTA, pH 8.3); settings: protein: recombinant; tags: His-SUMO (N-terminal, pCold-SUMO); label: none; blunt
Scr (Sex combs reduced) [4] = target: T1, Scr (Sex combs reduced); experiment: competition; unlabeled mutant, 5-50x, against labeled N5; EMSA: 0.1-1 ug protein, 5 uM labeled probe, 15 uL with 3 uL 5x binding buffer (Beyotime, composition not given), 25 C, 20 + 20 min; 5% PAGE in 1x TBE (45 mM Tris-borate, 1 mM EDTA, pH 8.3); settings: protein: recombinant; tags: His-SUMO (N-terminal, pCold-SUMO); label: none; blunt

T1 sequence (Q9XZR4 entry or part of it): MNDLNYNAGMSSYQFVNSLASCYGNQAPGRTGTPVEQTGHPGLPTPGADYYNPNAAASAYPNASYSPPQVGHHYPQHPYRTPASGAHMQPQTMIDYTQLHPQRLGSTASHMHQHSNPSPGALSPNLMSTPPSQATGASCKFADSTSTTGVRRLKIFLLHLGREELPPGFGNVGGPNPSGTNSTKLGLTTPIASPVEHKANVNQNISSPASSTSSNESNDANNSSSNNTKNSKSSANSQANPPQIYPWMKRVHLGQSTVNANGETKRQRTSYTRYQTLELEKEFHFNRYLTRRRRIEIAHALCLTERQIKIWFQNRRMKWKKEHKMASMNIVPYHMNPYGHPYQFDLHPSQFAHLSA

Binder	binding result (Scr (Sex combs reduced) [1])	also measured
B1	binds	–
B2	binds	–
B3	binds	–
B4	–	binding result (Scr (Sex combs reduced) [2]): no binding
B5	–	binding result (Scr (Sex combs reduced) [3]): no binding
B6	–	binding result (Scr (Sex combs reduced) [4]): no binding
